Measured values reported in patent publication US20240025997A1 (NGM BIOPHARMACEUTICALS, published 2024).

How the values were obtained:
[1] = molecular target: T1, soluble human ILT2-ECD (human, UniProt Q8NHL6 24-461); test: Biacore competition: antibody titrated against 20 nM ILT2-ECD, mixture injected over biotinylated HLA-A*1101 on a NeutrAvidin chip; blocked ligand HLA-A*1101
T1 construct: also called LILRB1 extracellular domain
Description: (§1) As part of the characterization process, the ability of exemplary antibodies to inhibit or block the interaction of ILT2 or ILT4 with their natural ligands was evaluated in competition experiments using a Biacore system. As described herein, the natural ligands of ILT2 and ILT4 include, but are not limited to, HLA class I molecules, including HLA-A, HLA-B, HLA-C, HLA-E, and HLA-G. Biotinylated HLA-A*1101 was captured in high amounts on a NeutrAvidin chip surface. Antigen-antibody complexes were prepared with (i) ILT2-ECD and anti-ILT2 antibody 27F9, anti-ILT4 antibody 48A5, or anti-ILT2/ILT4 antibody Hz73D1.v1 and (ii) ILT4-ECD and anti-ILT2 antibody 27F9, anti-ILT4 antibody 48A5, or anti-ILT2/ILT4 antibody Hz73D1.v1. The antibody concentration of each antibody was titrated from 0.09-100 nM and the concentration of human ILT2-ECD or ILT4-ECD was kept constant at 20 nM. The complexes were mixed in a 96-well microplate and each was injected onto the HLA-A-coated chip surface. The measured signal (response unit, RU) was plotted against the antibody concentration.

[2] = molecular target: T2, human ILT4 on cells (human, UniProt Q8N423 22-597); test: cell-based or functional assay
T2 sequence (Q8N423 other isoform, or with tags, fused parts or gaps): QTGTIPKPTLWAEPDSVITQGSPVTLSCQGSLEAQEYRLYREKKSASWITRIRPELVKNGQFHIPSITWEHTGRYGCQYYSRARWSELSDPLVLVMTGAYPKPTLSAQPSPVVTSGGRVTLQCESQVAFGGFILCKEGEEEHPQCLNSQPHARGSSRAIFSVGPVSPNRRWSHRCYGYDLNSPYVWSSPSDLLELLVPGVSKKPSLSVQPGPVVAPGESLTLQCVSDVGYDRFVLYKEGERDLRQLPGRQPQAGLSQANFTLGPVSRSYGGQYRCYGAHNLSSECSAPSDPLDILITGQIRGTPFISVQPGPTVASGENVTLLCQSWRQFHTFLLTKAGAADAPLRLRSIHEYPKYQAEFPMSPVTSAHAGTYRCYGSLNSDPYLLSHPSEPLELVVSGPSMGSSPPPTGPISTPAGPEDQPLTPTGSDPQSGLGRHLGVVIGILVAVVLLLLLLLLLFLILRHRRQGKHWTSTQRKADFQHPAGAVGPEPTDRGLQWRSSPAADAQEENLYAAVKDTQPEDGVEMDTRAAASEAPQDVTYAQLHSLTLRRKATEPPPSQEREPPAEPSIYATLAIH

[3] = molecular target: Human ILT2-Fc (human, UniProt Q8NHL6 24-461, limits assumed); test: SPR (Biacore) competition: blocking of human ILT2-Fc binding to HLA-A, 25 C
Sequence of Human ILT2-Fc (Q8NHL6 24-461 limits assumed): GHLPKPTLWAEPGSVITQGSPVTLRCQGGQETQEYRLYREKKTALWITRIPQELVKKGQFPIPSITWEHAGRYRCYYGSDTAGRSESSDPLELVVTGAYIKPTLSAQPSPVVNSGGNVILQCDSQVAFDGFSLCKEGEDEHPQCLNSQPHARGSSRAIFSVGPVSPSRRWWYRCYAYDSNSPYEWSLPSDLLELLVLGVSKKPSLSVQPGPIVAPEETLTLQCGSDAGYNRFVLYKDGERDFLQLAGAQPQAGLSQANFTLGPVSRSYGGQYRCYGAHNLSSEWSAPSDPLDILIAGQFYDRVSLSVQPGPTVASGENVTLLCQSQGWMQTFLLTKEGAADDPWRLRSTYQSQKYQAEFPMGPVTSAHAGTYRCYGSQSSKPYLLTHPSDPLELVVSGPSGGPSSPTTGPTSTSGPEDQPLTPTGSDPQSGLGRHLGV
Description: (§2) In addition to the reporter cell system, the inhibitory activity of anti-ILT2/ILT4 antibodies towards the interaction between ILT2 and MHC I molecules, and the interaction between ILT4 and MHC I molecules was evaluated using the Biacore system. Human ILT2-Fc and ILT4-Fc were used as target receptors and their interaction with an exemplary MHC-I molecule (HLA-A) was assayed in the presence or absence of an exemplary anti-ILT2/ILT4 antibody Hz73D1.v1 at 25° C. Anti-human ILT2 (clone 27F9) or ILT4 (clone 48A5) antibodies were used as tool reagents to dissect ILT2- and ILT4-specific blocking activities. Anti-IL2/ILT4 antibodies produced a dose-dependent reduction in the interaction between ILT2 and HLA-A, as well as between ILT4 and HLA-A. IC50s of the antibodies tested are shown in Table 16.

[4] = molecular target: Human ILT4-Fc (human, UniProt Q8N423 22-460); test: SPR (Biacore) competition: blocking of human ILT4-Fc binding to HLA-A, 25 C
Sequence of Human ILT4-Fc (Q8N423 other isoform, or with tags, fused parts or gaps): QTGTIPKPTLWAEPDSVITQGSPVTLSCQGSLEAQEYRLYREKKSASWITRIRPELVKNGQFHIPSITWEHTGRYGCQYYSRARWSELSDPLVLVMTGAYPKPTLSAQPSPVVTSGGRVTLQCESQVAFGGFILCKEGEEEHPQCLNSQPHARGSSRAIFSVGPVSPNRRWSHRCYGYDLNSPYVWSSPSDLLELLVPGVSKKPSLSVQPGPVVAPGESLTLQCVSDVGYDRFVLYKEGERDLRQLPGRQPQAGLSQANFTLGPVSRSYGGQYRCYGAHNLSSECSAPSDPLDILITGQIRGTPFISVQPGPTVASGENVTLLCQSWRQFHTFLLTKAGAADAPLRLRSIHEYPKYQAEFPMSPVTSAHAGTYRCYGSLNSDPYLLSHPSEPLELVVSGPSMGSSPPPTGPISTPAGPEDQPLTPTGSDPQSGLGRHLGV
Description: as §2

[5] = molecular target: T2, human ILT4 on cells; test: cell-based or functional assay; remark: listed apart in the source
[6] = molecular target: T3, human ILT2 on cells (human, UniProt Q8NHL6 24-650); test: cell-based or functional assay
T3 sequence (Q8NHL6 24-650): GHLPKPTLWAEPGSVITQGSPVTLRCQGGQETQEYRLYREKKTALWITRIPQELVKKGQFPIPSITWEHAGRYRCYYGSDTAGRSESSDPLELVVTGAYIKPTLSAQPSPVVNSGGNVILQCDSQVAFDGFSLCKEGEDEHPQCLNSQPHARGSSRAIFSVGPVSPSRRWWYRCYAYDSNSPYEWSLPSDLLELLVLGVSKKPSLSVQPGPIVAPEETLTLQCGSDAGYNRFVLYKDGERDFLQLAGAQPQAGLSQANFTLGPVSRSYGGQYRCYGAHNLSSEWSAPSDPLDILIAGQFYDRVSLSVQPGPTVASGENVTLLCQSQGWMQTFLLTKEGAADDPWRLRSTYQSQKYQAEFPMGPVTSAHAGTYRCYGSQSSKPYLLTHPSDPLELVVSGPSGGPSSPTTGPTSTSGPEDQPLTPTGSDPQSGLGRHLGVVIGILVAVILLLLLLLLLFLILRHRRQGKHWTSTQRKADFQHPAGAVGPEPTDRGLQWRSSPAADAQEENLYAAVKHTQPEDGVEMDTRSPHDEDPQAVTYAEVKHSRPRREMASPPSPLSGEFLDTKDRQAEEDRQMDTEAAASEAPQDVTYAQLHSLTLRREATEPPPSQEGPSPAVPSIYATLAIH

[7] = molecular target: T4, soluble human ILT4-ECD (human, UniProt Q8N423 22-460); test: Biacore competition: antibody titrated against 20 nM ILT4-ECD, mixture injected over biotinylated HLA-A*1101 on a NeutrAvidin chip; blocked ligand HLA-A*1101
T4 construct: also called LILRB2 extracellular domain
Description: as §1

[8] = molecular target: T4, soluble human ILT4-ECD; test: SPR (Biacore), antibody captured on Protein A chip, ILT protein injected, 25 C
[9] = molecular target: T1, soluble human ILT2-ECD; test: as above
[10] = molecular target: T4, soluble human ILT4-ECD; test: SPR (Biacore) as described in Example 3
Description: (§3) The binding affinities of anti-ILT2 and anti-ILT4 antibodies were measured using a Biacore system (GE Healthcare LifeSciences). Equilibrium dissociation constant (KD) measurements were carried out with purified antibodies to evaluate their binding to human ILT2, human ILT4, and rhesus ILT2. Briefly, purified anti-ILT2 antibody 27F9, anti-ILT4 antibodies 47C8 and 48A5, and anti-ILT2/ILT4 antibodies 47H6, 51A1, 64A12, 73C4, and 73D1 were captured on a Sensor Chip Protein A (GE HealthCare). The surface of the Biacore Sensor Chip Protein A consists of a carboxymethylated dextran matrix with a recombinant Protein A variant covalently attached. Soluble human ILT2-ECD, human ILT4-ECD, or rhesus ILT2-ECD were injected at a flow rate of 30 μL/min at 25° C. The ILT2 or ILT4 proteins were used at concentrations ranging from 1.6-200 nM in PBS-P buffer with 2 fold dilutions. Kinetic data were collected over time and fit using the simultaneous global fit equation to yield affinity constants (KD values) for each antibody.
(§4) The binding affinities of the humanized antibodies to human ILT2 and human ILT4 were measured using a Biacore system as described herein. The binding affinities of antibodies Hz47H6.v2, Hz64A12, and Hz73D1.v1 are shown in Table 11 as compared with the parental antibodies.

[11] = molecular target: T1, soluble human ILT2-ECD; test: SPR (Biacore) as described in Example 3
Description: as §3, §4

[12] = molecular target: T5, cynomolgus monkey ILT2 on cells (cynomolgus monkey); test: flow cytometry, fluorescently labelled antibody on CD14+ monocytes of cyno PBMC (2 donors), geometric MFI
T5 construct: also called cyno ILT2; ILT2 on cyno CD14+ monocytes
T5 sequence (chain, as listed by the source): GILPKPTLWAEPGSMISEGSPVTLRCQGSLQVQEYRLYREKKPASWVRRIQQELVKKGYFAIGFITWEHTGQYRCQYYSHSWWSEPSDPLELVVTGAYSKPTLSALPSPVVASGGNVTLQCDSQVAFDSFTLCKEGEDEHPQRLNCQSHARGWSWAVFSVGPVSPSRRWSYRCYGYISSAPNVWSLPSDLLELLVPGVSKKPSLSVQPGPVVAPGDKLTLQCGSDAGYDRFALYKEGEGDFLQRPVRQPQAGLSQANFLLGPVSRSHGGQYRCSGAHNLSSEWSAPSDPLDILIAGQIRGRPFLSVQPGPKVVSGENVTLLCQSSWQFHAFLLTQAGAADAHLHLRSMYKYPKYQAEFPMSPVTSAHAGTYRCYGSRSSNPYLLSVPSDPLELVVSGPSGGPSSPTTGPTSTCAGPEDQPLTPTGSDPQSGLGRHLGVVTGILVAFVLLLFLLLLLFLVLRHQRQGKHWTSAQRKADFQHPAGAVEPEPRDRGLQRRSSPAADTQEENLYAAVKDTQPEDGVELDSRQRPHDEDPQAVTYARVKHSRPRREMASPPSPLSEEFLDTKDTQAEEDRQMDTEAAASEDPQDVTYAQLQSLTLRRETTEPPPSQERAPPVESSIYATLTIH
Description: The binding of anti-ILT2/ILT4 antibodies to monocytes was evaluated. The binding of exemplary anti-ILT2/ILT4 antibody 73D1 and the humanized version Hz73D1.v1 to the CD14+ monocyte population of human and cyno PBMC were determined by flow cytometry analysis. Briefly, human or cyno PBMCs (from 2 donors each) were thawed, washed in media (RPMI, 10% FBS, L-glutamine, pen/strep), and resuspended in fresh media. PBMCs were stained with a cocktail of labeled antibodies to differentiate between the different cell types. 1×10⁶ cells/well were stained with fluorescently-labelled 73D1 or Hz73D1.v1 antibody and incubated on ice. The cells were washed with ice-cold reagents and immediately analyzed by flow cytometry. The geometric mean fluorescence intensity for CD14+ monocytes was calculated for each sample. […] For example, the 50% effective concentration (EC₅₀) of Hz73D1.v1 was 8.8 nM with human monocytes and 1.8 nM with cyno monocytes.

[13] = molecular target: T4, soluble human ILT4-ECD; test: SPR (Biacore), antibody captured on Protein A chip, soluble ILT-ECD injected (1.6-200 nM), 25 C
Description: as §3

[14] = molecular target: T6, human ILT2 chimeric reporter receptor (ILT2 extracellular domain fused to PILRbeta … (human, UniProt Q8NHL6 24-461)); test: reporter cell assay (not a direct binding assay): human ILT2 reporter cells co-cultured with Raji cells, %GFP+ by FACS
T6 construct: On the surface of NFAT-GFP reporter cells; associates with DAP12; also called ILT2 reporter cells; Human ILT2 reporter construct; not shown: The PILRbeta transmembrane/intracellular domain
T6 sequence (Q8NHL6 24-461 limits assumed, change not shown): as the sequence (Q8NHL6 24-461 limits assumed) above
Description: The ability of anti-ILT2/ILT4 antibodies to inhibit the interaction between ILT2 and/or ILT4 and MHC I molecules was evaluated using a reporter cell system. […] In this chimeric receptor system, the extracellular domain of the receptor of interest (e.g., ILT2 or ILT4) is fused with the transmembrane/intracellular domain of PILRβ that associates with the adaptor protein DAP12. When the chimeric receptor (e.g., ILT2 or ILT-4) is activated by binding to a ligand (e.g., MHC I molecule), DAP12 becomes phosphorylated and activates an NFAT-responsive promoter which drives GFP expression (see, e.g., Deng et al., 2014, Blood, 124:924-935).
Reporter cells were washed after staining and resuspended at 1×10⁶ cells/ml in X-VIVO™ 15 media (Lonza). […] For assays with Raji cells: anti-ILT2 antibody 27F9, anti-ILT4 antibody 48A5, anti-ILT2/ILT4 antibody 73D1 and Hz73D1.v1, and a control antibody were serially diluted and 50 μl was added to each well of a 96-well flat-bottom cell culture plate. […] The plates were incubated overnight at 37° C. The next day, reporter cells were assayed for GFP expression by FACS.

[15] = molecular target: T2, human ILT4 on cells; test: flow cytometry, fluorescently labelled antibody on immune cell subsets of PBMC / red-cell-depleted whole blood
Description: (§5) Flow cytometry analysis of blood immune cells was performed on human and cyno PBMC and whole blood. PBMC were prepared from a leukopak (Allcells Inc.) by centrifugation through ficoll, washing with PBS and freezing in cryopreservation buffer in liquid nitrogen until use. Whole blood (Allcells Inc.) was obtained fresh and red blood cells (RBC) depleted using ammonium chloride RBC lysing solution (Biolegend). PBMC or whole blood samples were stained with a fluorescently labeled antibody panel to distinguish various immune subsets (monocytes, B cells, NK cells, CD4+ and CD8+ T cells, neutrophils and eosinophils). Samples were further stained with fluorescently labeled isotype, 27F9 (ILT2 specific), 48A5 (ILT4 specific), 73D1, and Hz73D1.v1. The number of ILT2 and ILT4 molecules per cell of each immune subset was estimated by incubation with Quantum Simply Cellular microspheres followed by flow cytometry analysis.

[16] = molecular target: T3, human ILT2 on cells; test: as above
Description: as §5

[17] = molecular target: T1, soluble human ILT2-ECD; test: Biacore competition: antibody titrated against 20 nM ILT2-ECD, mixture injected over biotinylated HLA-A*1101 on a NeutrAvidin chip
Description: as §1

T1 sequence (Q8NHL6 24-461): as the sequence (Q8NHL6 24-461 limits assumed) above

B1: humanized anti-ILT2/ILT4 antibody Hz73D1.v1 (antibody, human IgG1, kappa, N297G, V domains shown)
VH: QVQLVQSGAEVKKPGASVKVSCKASGYTFTDYYINWVRQAPGQGLEWMGNVNPNDGGTTYNQKFKGRVTMTTDTSTSTAYMELRSLRSDDTAVYYCARREIYFYGTIYYYAMDYWGQGTLVTVSS
VL: DIQLTQSPSFLSASVGDRVTITCRASESVDYYGNSFMYWYQQKPGKAPKLLIYFASNLESGVPSRFSGSGSGTEFTLTISSLQPEDFATYYCQQNNEDPWTFGGGTKVEIKR
notes: Human IgG1 constant region with G at position 297, human kappa; also called Hz73D1.vi
- IC50 (read off the curve) [1]: ~9 nM
- EC50 (nM), TNFalpha secretion of tolerized dendritic cells, LPS + Cyclosporine [2]: 0.2 nM
- EC50 (nM), TNFalpha secretion of tolerized dendritic cells, LPS + IL-6 [2]: 0.14 nM
- EC50 (nM), TNFalpha secretion of tolerized dendritic cells, LPS + IL-10 [2]: 1.2 nM
- EC50 (nM), TNFalpha secretion of tolerized dendritic cells, LPS + PGE2 [2]: 0.44 nM
- EC50 (nM), TNFalpha secretion of tolerized dendritic cells, LPS + Rapamycin [2]: 0.15 nM
- EC50 (nM), TNFalpha secretion of tolerized dendritic cells, LPS + TGFβ [2]: 0.1 nM
- EC50 (nM), TNFalpha secretion of tolerized dendritic cells, LPS + VitD3/Dex [2]: 0.4 nM
- IC50 [3]: 10 nM
- IC50 [4]: 9.4 nM
- EC50, GM-CSF secretion of LPS-stimulated human PBMC [5]: 1.5 nM
- EC50, TNFalpha secretion of LPS-stimulated human PBMC [5]: 0.76 nM
- EC50, NKL cytolytic activity against 721.221-HLA-A*0201 target cells [6]: 0.13 nM
- EC50, NKL cytolytic activity against 721.221-HLA-G target cells [6]: 2.4 nM
- percent CD137+ NK cells, ADCC assay with CAL-27 cells and anti-EGFR antibody [6]: 1.8 fold
- IC50 (read off the curve) [7]: ~9 nM
- Kd [8]: 0.205 nM
- koff [8]: 4.6e-05 s⁻¹
- kon [8]: 220000 M⁻¹ s⁻¹
- Kd [9]: 1.03 nM
- koff [9]: 4.85e-05 s⁻¹
- kon [9]: 47200 M⁻¹ s⁻¹
- Kd [10]: 0.75 nM
- koff [10]: 0.00027 s⁻¹
- kon [10]: 360000 M⁻¹ s⁻¹
- Kd [11]: 3 nM
- koff [11]: 0.00025 s⁻¹
- kon [11]: 85000 M⁻¹ s⁻¹
- binding result [12]: binds

B2: anti-ILT4 antibody 48A5 (antibody, V domains shown)
VH: QIQLVQSGPELKKPGETVKISCKASGYTFTNYGMNWVKQAPGKGLKWMGWINTYIGEPIYADDFKGRFAFSLETSASTAYLQINNLKNEDMATYFCARRSDYDGYAMDYWGQGTSVTVSS
VL: DIVMSQSPSSLAVSVGERVTMSCKSSQSLLYSGNQKNYLAWYQQKPGQSPKLLIYWASTRESGVPDRFTGSGSGTDFTLTISSVKAEDLAVYYCQQHDSYPTFGGGSRLEIK
notes: Mouse hybridoma antibody; also called clone 48A5; anti-ILT4 (48A5)
- Kd [13]: 0.026 nM
- koff [13]: 2.1e-05 s⁻¹
- kon [13]: 810000 M⁻¹ s⁻¹
- IC50 [4]: 8.4 nM
- binding result [14]: no binding (tested: Log nM about 1.5 (about 30 nM))
- IC50 (read off the curve) [7]: ~20 nM
- binding result [15]: binds
- binding result [16]: no binding (tested: not given)
- binding result [17]: no binding (tested: about 200 nM)
